# Test results: the DeepSol protein solubility set
# Test: soluble on expression in E. coli; label from the status in PepcDB or PDB records
row,Sequence,soluble on expression in E. coli
1,MHLSSSLLLVAAALFALPDGTFECATNGLCGYQPSCAAYSQPRPSCGCASSYGCGSYGCYRLRARGAKSYQPKRGRSRVTVGGSSSEEAREVLRQRMAMERVRRKEQLTSSEELDLVSPSVLRNSKSEQPINPDRAFYECCIDRKLPDACLSKCSFGAFTKPTLQAMYFKQDPCPLDAMKEMQFCAAQGRDHRDCCARNGVTTTLAGPKCLSFCDQRLGRNQQLDMSYVPCFDRFESMKSCFWHDMTRYYKRV,not soluble
2,MEHPNLEENVGEQDFASNDRFFNSYNIVPRRILQANYDSSLRQMEGYQEEIETDNPINESRGDEAEELENEGCDDRDRCTSRNSIDSEIYENSDEEVYDESMYESEEEYADSPFIIDKMEECLQNHQIGELGSRVMEGLETGTLADVQLEEFCRSRVKPEVTPREFYEELASSGNGDWKKFSMGQFVLSKMKSSKDTAWANTEATVNSLAANLSKANTVGSIVKRVISREYAIEEKDGFPRYNLTNFYNNTTLQGQGAVAQLTSVYVGFLKNLFKPSFKIWLFTYRPSSAYNFDKHFVEYPASVIDTIFGRKLDAFSMEVLGVYLPEDLLVGGCYNVSDASETFLQSLGENASKEVERRRKFRGPARKTCIGAMAAAMKSLRQHHYNAARDTVSYCSARSDCKEHLTWHQLRFYRAHSGKTKEECDLARPDDVMAFCRERAMPRYSLSPNRDATS,soluble
3,MLINARISVRSYPKYQRFSFFYALLFKRIDLILAQSKEDKKRLLNLGAKKVVDFLNIKRFSKPVITSFYPKNPSALNIVLASTHEGEEELGLKAFLELKKTFKNARLIVVPRHPERFKSVQDLLQNTLKTTPFSWECFSSKGFVECDILLVDSLGELNNFYQIADIVILGGSFVKMGGHNPLEPAFFNARLITGEYIFNQVALFELVKPYKIVPKEDLLDALLDYKNLGMARFLENGHDLNELLAFIKHLEHHHHHH,soluble
4,MNERLIFNPKQLTSARIARGLTMKELAEKAELSRQMISNYESGKTIPKADSILKLISVLQFPRSFFSADTFELYSGATFFRSRSAATKKVRDMQKERLKYVQEVYKVLATYVNFPKVCLPELIEKSIYEITEEEIVKKAEELRKIWGLDLISPVPNLIQLAEQNGVIISEANMSNPTLDAVSRWMIGRPFIMLTDNHESAVRRRFNVAHELGHILLHNGVESIHEYSQTELKNIIEYQANLFAAHFLLPSAAFSDSLLSISLEYYIDLKKYWKVSLQSMIQKIYTLALINDDQRLYLNKRIAKNKWKTKEPYDEQLTIEQPEVFQKVYHMILEHQVIPASQLNQAFKLPKEEIEKILGTAIQTEQDKTEIVLELLRSNK,not soluble
5,MSDPSSINGGIVVAMTGKDCVAIACDLRLGSQSLGVSNKFEKIFHYGHVFLGITGLATDVTTLNEMFRYKTNLYKLKEERAIEPETFTQLVSSSLYERRFGPYFVGPVVAGINSKSGKPFIAGFDLIGCIDEAKDFIVSGTASDQLFGMCESLYEPNLEPEDLFETISQALLNAADRDALSGWGAVVYIIKKDEVVKRYLKMRQD,soluble
6,MGGSHHHHHHGMASALAAKVDLSTSTDWKEAKSFLKGLSDKQREEHYFCKDFVRLKKIPTWKEMAKGVAVKVEEPRYKKDKQLNEKISLLRSDITKLEVDAIVNAANSSLLGGGGVDGCIHRAAGPLLTDECRTLQSCKTGKAKITGGYRLPAKYVIHTVGPIAYGEPSASQAAELRSCYLSSLDLLLEHRLRSVAFPCISTGVFGYPCEAAAEIVLATLREWLEQHKDKVDRLIICVFLEKDEDIYRSRLPHYFPVA,not soluble
7,MGHHHHHHSHDSLAEFKVPLILFSGGEPLLREDIFEIAGYAKKKGIKSVLSTNGTLIDRDMAENLKVFEYVGVSLDGVASTNDRFRGVEGAYERAFKGLLMASEVVLSGIRFTVSKYNYKDVFSLIELAREHEIPRFCLYHLVPSGRAEFKDDITNEQRRALLDNLLREAEKEGMEIMTVDNPADGIYTYLKLKEADSEKAEMALEFLKFRGGDSSGIRLANIDHQGNVHPNQFW,soluble
8,MGSDKIHHHHHHMKKKFQLEVPGGADKVLLHTCCAPCSSAIIECLMQHGVTPVIYYCNPNIYPLEEYIIRKDECTRYAQSLGLEIIDADYDHDAWRCRMAGMEQEPERGGRCLRCFKMRLQETARYAHEHGFPVITTTLASSRWKSLEQIEEAGRYATAPYPDVTYWEQNWRKGGLSERRIAIIKEYNFYNQQYCGCEFSMRKEEKGG,not soluble
9,MGGGHFAASNALKTAFLQKDPQAKVEIVDTLKIISPILDKLAVGTYLKAIKTVPFIYGLVYDSTDKDPPTRFSKAIYEKFYFAFYKLYNIISELNPDVIIGTHPSPIDMVSQLKKRGNINVPIISIVTDFTIHPYWINEYADYIIVHHENLVYEAVKKGAPGKKVIPLGIPLEHHHHHH,not soluble
10,MYFLTSSLPTTLMNVALTSWARAFAINVFPQPGGPYKRTPFGGSIPTSSKSSGCLRGSSMASLNSCSCFFKPPISLYVTFGLSMTSNPSTVGSLDVGSISTTAIVLLEHHHHHH,not soluble
11,MGSDKIHHHHHHMSILTDSNETSHLPDSCSSTLGKQNFHNSLFSVPEAFEFSLVVVNDLVFAKRGKYLTDAELVVMRGALNNLDYEEIAHNSNYTVNYLQRCVAPLLWDTLSETIGNGDRVGKKKLRQILEELNQKYHIQSPFEPYLTLSSSDNSSLIIRGQLPEISNFYGRIHELNLLKELIFKHRCITLVGVAGVGKSSLATKLIVELSKKPRRQFDALIWKSLSHIPSLPELTHELIALIQPSLIPELPLSSSTHNLISILIQQLQSCPCLLVLDGFEALFQRSNFTERLEYSIFLNRLIDEASPSCLLLTTRILPDELNILIKNNPSTIKVFKVNGLDIDAATQLLSDLGLQQEENYQSLINTYWGNPLELKNVVSRIERFFSGSTLKFLENKTTLISLQLQTMLNEMFGQVLSDLQRRIMICITEDLVLTSQPISFAKLLTRLRQLPNLPVSTSELITDLEKLERLSLIESGKDNTTKEITFTLQPVVKKYINTDPAGLVHPSEQFTPYSTTTQKNTHAH,not soluble
12,MAEDLYKRLNTVDRLFTLALDLHSHTDLAAQTLMKSGKVHSIERVETDMLYQNHDKKFHLRSREFLDFPQNYCDLIVSLLSLQLTNDTPGVLSQIKNILKPDGLFLAVMAGVGTLSELRECLLQAEIEIYGGASPRIYPFADIRAVGALLQRVGFALPVADIEDVTIRYDTMFDLINDLRAMGMQNALINRSRRPVSKRFFLRAAEIYAKRFSDLDGRIRAHFSFIWLSGWAPHPNQQKPIQPGSAQISLADVLVKQSKKT,not soluble
13,MSRRYDTIKHLGEGQFANVYLAQDLESGECVAIKKIKLGSREEAKDGINRTAIREIKLLKEIHHDNIIGLRDVIGHRTSIQLVFDFMDTDLEHVIKDKEIILMPAHIKNITMQMLLGLEFLHVHWILHRDLKPNNLLMNKMGRVKLTDFGLARFFGSPNRNYTHQVVTRWYRAPELLFGARSYGVGIDIWSVGCIIAELLLRNPIFPGESDIDQLVKIFNILGCPTPETWPNMTEMNSYVIIKPQTEYMALNYYFSAAPQDLLDLMAGMWTFDPIKRLTCTQSLQMEYFRTQPFCCLDEELPLPKKQQPQKRSRRLDDDGTRPVRRLNFD,not soluble
14,MNIVPILLIRFYQSFISPLLGPSCKYHPTCSNYAIEAFRQHNFFYASWLTVWRVLRCNPFSKGGYDPVPPKSVKSAGNSKDSKLEHHHHHH,not soluble
15,MSTPTAADRAKALERKNEGNVFVKEKHFLKAIEKYTEAIDLDSTQSIYFSNRAFAHFKVDNFQSALNDCDEAIKLDPKNIKAYHRRALSCMALLEFKKARKDLNVLLKAKPNDPAATKALLTCDRFIREERFRKAIGGAENEAKISLCQTLNLSSFDANADLANYEGPKLEFEQLYDDKNAFKGAKIKNMSQEFISKMVNDLFLKGKYLPKKYVAAIISHADTLFRQEPSMVELENNSTPDVKISVCGDTHGQFYDVLNLFRKFGKVGPKHTYLFNGDFVDRGSWSCEVALLFYCLKILHPNNFFLNRGNHESDNMNKIYGFEDECKYKYSQRIFNMFAQSFESLPLATLINNDYLVMHGGLPSDPSATLSDFKNIDRFAQPPRDGAFMELLWADPQEANGMGPSQRGLGHAFGPDITDRFLRNNKLRKIFRSHELRMGGVQFEQKGKLMTVFSAPNYCDSQGNLGGVIHVVPGHGILQAGRNDDQNLIIETFEAVEHPDIKPMAYSNGGFGL,soluble
16,MEFEGCSGFRQRLVLSTLSGKPVKIRNIRSKDDNPGLRDFEASFIRMLDKLTNGTRIEINQTGTVLFYQPGLLYGGSVEHECNVQRSVGYYLEALLMLVPFMKTPIKAVLKGITNHPTDPSVDLLKVTAVPLMKRFGINGDGLEIKVVKRGMAPGGGGEVHFSCPVSRSMKPVQLTEAGKIKRIRGTAFSVRVSPQMANRIVDSARSILNKFIPDIYIYTDHMKGPNSGKSPGFGLGLVAETLNGVFLGAEVVSTPQGQGEMQLPEDLGRNCAKLLLEEIYRGGCVDSTNQSLALLYMTLGQQDVSKTLLGPLSPYTMDFLRHIRDFFQIMFKIETQKPSEDECKGGEKVLMTCVGAGYNNISKSIK,not soluble
17,GNPLRKFKLVFLGEQSVGKTSLITRFMYDSFDNTYQATIGIDFLSKTMYLEDRTVRLQLWDTAGLERFRSLIPSYIRDSTVAVVVYDITNVNSFQQTTKWIDDVRTERGSDVIIMLVGNKTDLADKRQVSIEEGERKAKELNVMFIETSAKAGYNVKQLFRRVAAALPGMESTQDRSREDMIDIKLEK,soluble
18,GQYTFSMPSDSHVSSCSEDWVGYQRKCYFISTVKRSWTSAQNACSEHGATLAVIDSEKDMNFLKRYAGREEHWVGLKKEPGHPWKWSNGKEFNNWFNVTGSDKCVFLKNTEVSSMECEKNLYWICNKPYK,soluble
19,MSTSSRTPSPSSLSACGGPSSSTTTAHPSSSPKSKTSVTSSRSDTDSVIPEHKPSSASSFSIGRLLFRSSGSSNSTKRDSVDSGKDDETGRSPATSRPGSPNPGGDKSPQMSTSRRLAGFASRSIRKSQWRLFKHRTFFGSQRSSMKKNQLQLPRLTLRHPSIDSSAMPLQLDVDENASGEGSDDFLQIRRSTQRRWTDSDTTGRLRDSRDSSDFNDSHDTLDIAGTSAHGVADSSSHHHHNYSMTAPVSPNVPLSASSSHSEGWKYSSQKLLWKLKPKYAYSHASSTSSSTDSAWKSLDSMTWRSVDGAEVVLRGARLENLSEIERSALQLLAAQRLTKMLPGVNLGKPKALRQKRQKLVKSNRTPTVADVQRRASGTPMPEEKRVFGVSLAMCMLNEKRLDQESRCRSLDDSTVIMLNKSKAKPTKSEPEMMSHTMPEDRKWLYPSTQNLYPTSTSNPSSPSPIMGSAPPTGSILPSANLLSAEPTTCEPQQVTGRFLKKQRPASASFSCSLDANIDDVDPHALQVPKIVENCTQYLMTYGLTQVGLFRVAGNTKRCRQLRNALEKVGGGAVINDNMVENTTSHDVATLLKEYFRDLPQSLLPGEHYSAYIGAAKLNVDERIEAIRLLFALLVSPILDTLFVLLKFLHEVSCHSQDRHDEDGELLSGNKMDARNLATIFAPSILRVDHDKLHETLAENEHQVIIVETMISNVEEIFKIPKELQCKIYTKLRETEPDRLDRILNHLSKMDSHESHPGVLLSPFPATLEEDSSPRHHRHGDHSHIGRQSPLARELTTNGKVKVQSQRSGSWPFSLTKTQTSPSRPEGQHFFPADSQDGPGPSHSHHDPSTSGTTMSATTTPGPGRKTDFSMKAADDSGRDSEFCSDELTFGTISQPETARERSVTMSTACGSPSTSNSKKTPMMASLQGATTSKSVDARSPSRERVDIRSAARSSAAAARRRLRNVVRAFRFTSMTRSTPDIAQSS,not soluble
